From patent US20230272104A1 (LEGEND BIOTECH IRELAND, published 2023) come the findings set out here.

The target in assay [1] is T1, human CD20 (membrane spanning 4-domains A1, MS4A1) on cells (human, UniProt P11836 1-297).
T1 construct: whole, on cells; Target cells used: Raji, K562-CD20, CHO-CD20, Daudi, RPMI-8226 (very low CD20); also called CD20 receptor; CD20 antigen
T1 sequence (looked up): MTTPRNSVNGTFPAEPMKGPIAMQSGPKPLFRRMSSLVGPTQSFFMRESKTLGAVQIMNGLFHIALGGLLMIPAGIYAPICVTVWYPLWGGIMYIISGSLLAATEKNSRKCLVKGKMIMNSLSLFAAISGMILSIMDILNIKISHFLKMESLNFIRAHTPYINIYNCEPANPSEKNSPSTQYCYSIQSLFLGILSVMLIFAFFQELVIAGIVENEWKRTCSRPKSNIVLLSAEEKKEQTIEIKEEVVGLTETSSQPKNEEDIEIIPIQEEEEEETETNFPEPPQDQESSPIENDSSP
Description: flow cytometry, mAb titrated on Raji cells, PE anti-human IgG1 Fc detection. The text has this: (§1) Each of three exemplary of anti-CD20 VHH sequences (clone ID: VHH-273, VHH-466 and VHH-496) with human IgG1 Fc fragment sequence (SEQ ID NO: 159) were cloned into a mammalian expression vector—pcDNA3.4, to facilitate the recombinant protein expression. The DNA codons were further optimized for optimal expression in mammalian host cell—Expi293F. The antibodies were harvested from the supernatant of cell culture, one-step purified by MabSelect SuRe LX and sterilized via a 0.2 μm filter. The purified antibody concentrations were determined by A280 and reached 2-6 mg/mL with ˜90% purity. Anti-CD20 scFv-huIgG1Fc mAb with amino acid sequence of Rituximab (C2B8) scFv shown in SEQ ID NO: 158 and anti-CD20 Fab-huIgG1Fc mAb with amino acid sequences of Leul6 VH-CH1 and VL-CL shown in SEQ ID NO: 163 and SEQ ID NO: 164 were used as positive controls for the cell surface binding assay. CD20 positive cell lines—Raji, K562-CD20 and negative cell line—K562 were re-suspended in complete culture medium, cells concentration was diluted to 1×10⁶ cells/mL and the staining was performed in 2×10⁵ cells per well. The mAbs were serially diluted from maximal concentration of 2000 nM (3-fold reduction, 12 pts) and added according to the experimental plan and protocol. The mAbs and cells were co-incubated for 1 hour at 4° C. Then, the cells were washed with 2(X) μL of DPBS+0.5% FBS and spun at 300 g for 5 mins, 4° C. The cells were stained with the detection antibody—PE-conjugated mouse anti-human IgG1 Fc (BioLegend, Cat. #409304, 1:100) for 40 mins at 4° C. The cells were then washed again and re-suspended with 200 μL of DPBS+0.5% FBS for flow cytometric analysis on a NovoCyte Flow Cytometer (ACEA Biosciences). The FACS data was analyzed by Novoexpress software, and the MFI (median fluorescent intensity) was analyzed by GraphPad PRISM version 6.0.
Background: Flow cytometry measures light scatter and fluorescence of single cells or particles in a stream.

Assay [2] addresses T1, human CD20 (membrane spanning 4-domains …). Briefly: flow cytometry, mAb titrated on K562-CD20 cells, PE anti-human IgG1 Fc detection.
Description: as §1, with “The mAbs and cells were co-incubated for 1 hour at 4° C. Then, the cells were washed with 2(X) μL of DPBS+0.5% FBS and spun at 300 g for 5 mins, 4° C. The cells were stained with the detection antibody—PE-conjugated mouse anti-human IgG1 Fc (BioLegend, Cat. #409304, 1:100) for 40 mins at 4° C. The cells were then washed again and re-suspended with 200 μL of DPBS+0.5% FBS for flow cytometric analysis on a NovoCyte Flow Cytometer (ACEA Biosciences).” left out

B1: Anti-CD20 Fab-huIgG1Fc mAb (antibody, V domains shown)
VH: EVQLQQSGAELVKPGASVKMSCKASGYTFTSYNMHWVKQTPGQGLEWIGAIYPGNGDTSYNQKFKGKATLTADKSSSTAYMQLSSLTSEDSADYYCARSNYYGSSYWFFDVWGAGTTVTVSS
VL: DIVLTQSPAILSASPGEKVTMTCRASSSVNYMDWYQKKPGSSPKPWIYATSNLASGVPARFSGSGSGTSYSLTISRVEAEDAATYYCQQWSFNPPTFGGGTKLEIKR
notes: also called Leul6 (Leu16) Fab-huIgG1Fc; not shown: human IgG1 Fc by the name
For orientation: EC50 means the concentration at which the effect is half-maximal. With B1, in assay [1], the EC50 is 13.5 nM.

B2: Anti-CD20 scFv-huIgG1Fc mAb (Fc fusion)
chain: QIVLSQSPAILSASPGEKVTMTCRASSSVSYIHWFQQKPGSSPKPWIYATSNLASGVPVRFSGSGSGTSYSLTISRVEAEDAATYYCQQWTSNPPTFGGGTKLEIKGGGGSGGGGSGGGGSQVQLQQPGAELVKPGASVKMSCKASGYTFTSYNMHWVKQTPGRGLEWIGAIYPGNGDTSYNQKFKGKATLTADKSSSTAYMQLSSLTSEDSAVYYCARSTYYGGDWYFNVWGAGTTVTVSA
notes: also called Rituximab (C2B8) scFv-huIgG1Fc; not shown: human IgG1 Fc by the name
With B2, the half-maximal effective concentration (EC50) in assay [2] was 41.1 nM; in assay [1] it was 75.3 nM.

B3: VHH-440-huIgG1Fc mAb (Fc fusion)
chain: QVHLMESGGGSVQAGGSLRLSCQASAYIRVFYLMGWFRQAPGKEREEVARVTADGFTNHAASVKGRFTISKDNAKNTLYLQMDSMKSEDTAVYYCAAGRTWNSGFEYWGQGTQVTVSS
notes: not shown: human IgG1 Fc by the name
Consider B3, for which the EC50 in assay [2] amounted to 6.24 nM; in assay [1], 11.1 nM.
